In patent US20030143191A1, “Chemokine beta-1 fusion proteins” (priority 2001, published 2003):

Experiments:
monocytes = settings: cited from earlier work
CCR1 = target: T1, CCR1 (Homo sapiens, UniProt P32246); settings: Detheux et al., J. Exp. Med. 192:1501-1508 (2000); cited from earlier work
T1 sequence (P32246 1-355): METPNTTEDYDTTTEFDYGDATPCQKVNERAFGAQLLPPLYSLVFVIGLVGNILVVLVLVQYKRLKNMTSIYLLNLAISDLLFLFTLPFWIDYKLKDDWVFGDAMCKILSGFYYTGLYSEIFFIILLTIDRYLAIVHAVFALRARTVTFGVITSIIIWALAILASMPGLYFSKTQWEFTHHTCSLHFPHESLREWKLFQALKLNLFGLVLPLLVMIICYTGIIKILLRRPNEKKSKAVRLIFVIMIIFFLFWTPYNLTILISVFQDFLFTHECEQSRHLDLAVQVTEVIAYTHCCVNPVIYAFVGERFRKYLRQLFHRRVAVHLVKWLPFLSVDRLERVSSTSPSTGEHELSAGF

CCR3 = target: T2, CCR3 (Homo sapiens, UniProt P51677); settings: Detheux et al., J. Exp. Med. 192:1501-1508 (2000); cited from earlier work
T2 sequence (P51677 1-355): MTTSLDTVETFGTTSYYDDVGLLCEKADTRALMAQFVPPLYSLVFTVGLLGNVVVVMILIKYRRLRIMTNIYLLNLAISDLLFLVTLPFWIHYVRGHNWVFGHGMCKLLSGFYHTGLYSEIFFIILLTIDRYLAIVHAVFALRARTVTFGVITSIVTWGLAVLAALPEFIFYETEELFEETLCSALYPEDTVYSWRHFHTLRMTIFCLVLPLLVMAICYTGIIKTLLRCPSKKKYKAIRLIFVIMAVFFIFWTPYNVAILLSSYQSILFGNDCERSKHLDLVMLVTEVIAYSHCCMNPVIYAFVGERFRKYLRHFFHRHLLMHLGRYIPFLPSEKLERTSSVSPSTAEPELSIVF

CCR5 = CCR5 (Homo sapiens, UniProt P51681); settings: Detheux et al., J. Exp. Med. 192:1501-1508 (2000); cited from earlier work
Sequence of CCR5 (P51681 whole entry, species assumed): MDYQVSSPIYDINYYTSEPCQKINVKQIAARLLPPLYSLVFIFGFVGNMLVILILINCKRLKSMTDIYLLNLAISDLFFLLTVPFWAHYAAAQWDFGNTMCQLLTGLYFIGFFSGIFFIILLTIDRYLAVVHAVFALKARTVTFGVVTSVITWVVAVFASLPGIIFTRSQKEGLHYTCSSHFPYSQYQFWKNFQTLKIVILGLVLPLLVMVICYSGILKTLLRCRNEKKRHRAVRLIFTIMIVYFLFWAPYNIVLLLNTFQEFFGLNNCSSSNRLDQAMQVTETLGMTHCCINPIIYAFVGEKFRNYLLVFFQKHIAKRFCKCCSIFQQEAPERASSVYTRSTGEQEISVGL

human monocytes = assay: Cytokine release from human monocytes (ELISA of culture supernatants); assay type: cell-based; settings: human monocytes (1×10^6), 1 day incubation
Procedure: To evaluate the in vitro activity of Ckb1(G-28-N93) and Ckb1(G-28-N93) fused to human serum albumin, proteins produced by these constructs were incubated with human monocytes (1×10^6) for 1 day. Culture supernatants were collected and analyzed by ELISA for cytokine content.

[1] = system: Jaks-STATS signal transduction pathway; assay: Jurkat:GAS-SEAP reporter assay for T-cell activity; assay type: cell-based; settings: Jurkat:GAS-SEAP cells; 100 Unit/ml; positive control wells; 48 hrs
Procedure: The following protocol is used to assess T-cell activity by identifying factors, and determining whether a fusion protein (e.g. albumin fusion protein) of the invention proliferates and/or differentiates T-cells. T-cell activity is assessed using the GAS/SEAP/Neo construct produced in Example 29. Thus, factors that increase SEAP activity indicate the ability to activate the Jaks-STATS signal transduction pathway. The T-cell used in this assay is Jurkat T-cells (ATCC Accession No. TIB-152), although Molt-3 cells (ATCC Accession No. CRL-1552) and Molt-4 cells (ATCC Accession No. CRL-1582) cells can also be used.
Jurkat T-cells are lymphoblastic CD4^+ Th1 helper cells. In order to generate stable cell lines, approximately 2 million Jurkat cells are transfected with the GAS-SEAP/neo vector using DMRIE-C (Life Technologies)(transfection procedure described below). The transfected cells are seeded to a density of approximately 20,000 cells per well and transfectants resistant to 1 mg/ml genticin selected. Resistant colonies are expanded and then tested for their response to increasing concentrations of interferon gamma.
Specifically, the following protocol will yield sufficient cells for 75 wells containing 200 ul of cells. Thus, it is either scaled up, or performed in multiple to generate sufficient cells for multiple 96 well plates. […]

[2] = system: Jaks-STATS signal transduction pathway; assay: GAS-SEAP/U937 reporter assay for myeloid activity; assay type: cell-based; settings: GAS-SEAP/U937 cells; 100 Unit/ml; positive control wells; 48 to 72 hr
Procedure: The following protocol is used to assess myeloid activity of a fusion protein (e.g. albumin fusion protein) of the present invention by determining whether the fusion protein proliferates and/or differentiates myeloid cells. Myeloid cell activity is assessed using the GAS/SEAP/Neo construct produced in Example 29. Thus, factors that increase SEAP activity indicate the ability to activate the Jaks-STATS signal transduction pathway. The myeloid cell used in this assay is U937, a pre-monocyte cell line, although TF-1, HL60, or KG1 can be used.
To transiently transfect U937 cells with the GAS/SEAP/Neo construct produced in Example 29, a DEAE-Dextran method (Kharbanda et. al., 1994, Cell Growth & Differentiation, 5:259-265) is used. First, harvest 2×10^7 U937 cells and wash with PBS. The U937 cells are usually grown in RPMI 1640 medium containing 10% heat-inactivated fetal bovine serum (FBS) supplemented with 100 units/ml penicillin and […] streptomycin.
Next, suspend the cells in 1 ml of 20 mM Tris-HCl (pH 7.4) buffer containing 0.5 mg/ml DEAE-Dextran, 8 ug GAS-SEAP2 plasmid DNA, 140 mM NaCl, 5 mM KCl, 375 uM Na2HPO4.7H2O, 1 mM MgCl2, and 675 uM CaCl2. Incubate at 37 degrees C. for 45 min.
Wash the cells with RPMI 1640 medium containing 10% FBS and then resuspend in 10 ml complete medium and incubate at 37 degree C. for 36 hr. […]

B1: Ckb1: human chemokine beta 1; mature form of 74 amino acids, amino acids 1-74 of SEQ ID NO:2 (protein, listed as Homo Sapiens)
chain: MKISVAAIPFFLLITIALGTKTESSSRGPYHPSECCFTYTTYKIPRQRIMDYYETNSQCSKPGIVFITKRGHSV
In the case of B1, the activation of monocytes (monocytes) is listed as “weak activator” and the “agonism / activation of CCR1” value (CCR1) is listed as “activates CCR1 at high (supraphysiological) concentrations”.

B2: Ckb1 [9-74]: N-terminal deletion variant of Ckb1 consisting of amino acids 9-74 of SEQ ID NO:2 (Detheux et al.) (protein, listed as Homo Sapiens)
chain: PFFLLITIALGTKTESSSRGPYHPSECCFTYTTYKIPRQRIMDYYETNSQCSKPGIVFITKRGHSV
In the case of B2, the “agonism of CCR3” value (CCR3) is given as “potent agonist”, the “agonism / activation of CCR1” value (CCR1) is given as “potent agonist” and the “agonism of CCR5” value (CCR5) is given as “potent agonist”.

B3: Ckb1(G28-N93): Ckb1 polypeptide, residues G28-N93, not fused (protein)
chain: GPYHPSECCFTYTTYKIPRQRIMDYYETNSQCSKPGIVFITKRGHSVCTNPSDKWVQDYIKDMKEN
With B3 the “release of IL-1β” value (human monocytes) was “induced release”, the “release of IL-6” value (human monocytes) was “induced release” and the “release of TNF-alpha” value (human monocytes) was “induced release”.

B4: IFN-g: IFN family ligand; positive control known to activate Jurkat T cells and U937 cells (protein, UniProt P01579 24-161, looked up)
Interferon gamma: QDPYVKEAENLKKYFNAGHSDVADNGTLFLGILKNWKEESDRKIMQSQIVSFYFKLFKNFKDDQSIQKSVETIKEDMNVKFFNSNKKKRDDFEKLTNYSVTDLNVQRKAIHELIQVMAELSPAAKTGKRKRSQMLFRG
With B4 the “induction (SEAP reporter activity)” value [1] was “Over 30 fold” and the “induction (SEAP reporter activity)” value [2] was “Over 30 fold”.
